Data published in the supplement of paper PMC10598134.
± gives the standard deviation.

Experiment: collision cross section of modified peptide (TIMS, N2, iRT-aligned); higher = larger / more extended gas-phase ion
Method in brief: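 Collision cross section values rest on the Mason-Schamp equation applied to calibrated, run-aligned mobility data from synthetic peptides. Mobility (1/K0) was calibrated with three reference ions and aligned per run to the median iRT peptide deviation, and 1–3 technical replicates of the most abundant feature per charge state were averaged. Data came from a timsTOF Pro/HT in dda-PASEF mode (nitrogen, ~2.4 mbar) after a 120-min nanoflow C18 gradient at 60 °C.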

[1] = charge state: 2, modification: Dimethyl (K)
[2] = charge state: 3, modification: Dimethyl (K)
[3] = charge state: 2, modification: Formyl
[4] = charge state: 2, modification: Glutarylation
[5] = charge state: 2, modification: GlyGly (K)
[6] = charge state: 3, modification: GlyGly (K)
[7] = charge state: 2, modification: Malonyl
[8] = charge state: 2, modification: Methyl (K)
[9] = charge state: 3, modification: Methyl (K)
[10] = charge state: 2, modification: Propionyl
[11] = charge state: 2, modification: Succinyl
[12] = charge state: 2, modification: Trimethyl (K)
[13] = charge state: 3, modification: Trimethyl (K)
[14] = charge state: 2, modification: hydroxyisobutyryl
[15] = charge state: 2, modification: Acetyl (K)
[16] = charge state: 2, modification: Butyryl
[17] = charge state: 2, modification: Crotonyl
[18] = charge state: 3, modification: HexNAc (ST)

IQQELQTAKK [_IQQELQTAK(Dimethyl (K))K_]
collision cross section [1]: 374.44 ± 1.1 Å²
collision cross section [2]: 426.86 ± 2.1 Å²

IQQELQTAKK [_IQQELQTAK(Formyl)K_]
collision cross section [3]: 369.08 ± 0.89 Å²

IQQELQTAKK [_IQQELQTAK(Gluratylation)K_]
collision cross section [4]: 388.2 ± 0.52 Å²
collision cross section (charge state: 3, modification: Glutarylation): 444.75 Å²

IQQELQTAKK [_IQQELQTAK(GlyGly (K))K_]
collision cross section [5]: 381.49 ± 0.89 Å²
collision cross section [6]: 434.95 ± 2 Å²

IQQELQTAKK [_IQQELQTAK(Malonyl)K_]
collision cross section [7]: 373.35 ± 6 Å²

IQQELQTAKK [_IQQELQTAK(Methyl (K))K_]
collision cross section [8]: 376.86 ± 3.5 Å²
collision cross section [9]: 430.18 ± 6.1 Å²

IQQELQTAKK [_IQQELQTAK(Propionyl)K_]
collision cross section [10]: 379.28 ± 0.65 Å²

IQQELQTAKK [_IQQELQTAK(Succinyl)K_]
collision cross section [11]: 376.48 ± 0.24 Å²
collision cross section (charge state: 3, modification: Succinyl): 438.22 Å²

IQQELQTAKK [_IQQELQTAK(Trimethyl (K))K_]
collision cross section [12]: 374.97 ± 0.61 Å²
collision cross section [13]: 436.54 ± 2.4 Å²

IQQELQTAKK [_IQQELQTAK(hydroxyisobutyryl)K_]
collision cross section [14]: 386.63 ± 0.81 Å²

IQTKAGEATVK [_IQTK(Acetyl (K))AGEATVK_]
collision cross section [15]: 364.34 ± 0.62 Å²

IQTKAGEATVK [_IQTK(Butyryl)AGEATVK_]
collision cross section [16]: 371.66 ± 1.8 Å²

IQTKAGEATVK [_IQTK(Crotonyl)AGEATVK_]
collision cross section [17]: 371.41 ± 0.56 Å²

IQTKAGEATVK [_IQTK(Dimethyl (K))AGEATVK_]
collision cross section [1]: 367.67 ± 0.82 Å²

IQTKAGEATVK [_IQTK(Formyl)AGEATVK_]
collision cross section [3]: 359.75 ± 0.38 Å²

IQTKAGEATVK [_IQTK(Gluratylation)AGEATVK_]
collision cross section [4]: 370.55 ± 0.62 Å²

IQTKAGEATVK [_IQTK(GlyGly (K))AGEATVK_]
collision cross section [5]: 373.63 ± 0.56 Å²
collision cross section [6]: 455.83 Å²

IQTKAGEATVK [_IQTK(Malonyl)AGEATVK_]
collision cross section [7]: 364.75 ± 0.62 Å²

IQTKAGEATVK [_IQTK(Methyl (K))AGEATVK_]
collision cross section [8]: 367.02 ± 0.38 Å²

IQTKAGEATVK [_IQTK(Propionyl)AGEATVK_]
collision cross section [10]: 369.17 ± 0.33 Å²

IQTKAGEATVK [_IQTK(Succinyl)AGEATVK_]
collision cross section [11]: 366.8 ± 0.24 Å²

IQTKAGEATVK [_IQTK(Trimethyl (K))AGEATVK_]
collision cross section [12]: 376.56 ± 1.1 Å²
collision cross section [13]: 436.23 Å²

IQTKAGEATVK [_IQTK(hydroxyisobutyryl)AGEATVK_]
collision cross section [14]: 374.42 ± 0.28 Å²

IQTVPASHLQQGTASGSSK [_IQTVPASHLQQGTAS(HexNAc (ST))GSSK_]
collision cross section [18]: 510.18 ± 0.18 Å²

ISALQGKLSK [_ISALQGK(Acetyl (K))LSK_]
collision cross section [15]: 353.22 ± 0.93 Å²
collision cross section (charge state: 3, modification: Acetyl (K)): 432.36 Å²

ISALQGKLSK [_ISALQGK(Biotin)LSK_]
collision cross section (charge state: 2, modification: Biotin): 376.95 ± 2.2 Å²

ISALQGKLSK [_ISALQGK(Butyryl)LSK_]
collision cross section [16]: 358.56 ± 1.2 Å²

ISALQGKLSK [_ISALQGK(Crotonyl)LSK_]
collision cross section [17]: 358.67 ± 0.88 Å²

ISALQGKLSK [_ISALQGK(Dimethyl (K))LSK_]
collision cross section [1]: 355.29 ± 0.29 Å²
collision cross section [2]: 425.26 ± 1.1 Å²

ISALQGKLSK [_ISALQGK(Formyl)LSK_]
collision cross section [3]: 348.45 ± 1 Å²

ISALQGKLSK [_ISALQGK(Gluratylation)LSK_]
collision cross section [4]: 358.52 ± 0.083 Å²

ISALQGKLSK [_ISALQGK(GlyGly (K))LSK_]
collision cross section [5]: 369.61 ± 1 Å²
collision cross section [6]: 430.51 ± 2 Å²

ISALQGKLSK [_ISALQGK(Malonyl)LSK_]
collision cross section [7]: 349.78 ± 0.6 Å²

ISALQGKLSK [_ISALQGK(Methyl (K))LSK_]
collision cross section [8]: 354.46 ± 1.1 Å²
collision cross section [9]: 434.86 ± 2.4 Å²

ISALQGKLSK [_ISALQGK(Propionyl)LSK_]
collision cross section [10]: 357.21 ± 0.33 Å²

ISALQGKLSK [_ISALQGK(Succinyl)LSK_]
collision cross section [11]: 354.02 ± 1.3 Å²

ISALQGKLSK [_ISALQGK(Trimethyl (K))LSK_]
collision cross section [12]: 359.1 ± 0.6 Å²
collision cross section [13]: 419.39 ± 1.8 Å²

ISALQGKLSK [_ISALQGK(hydroxyisobutyryl)LSK_]
collision cross section [14]: 359.85 ± 0.79 Å²

ISEILLDHGAPIQAK [_IS(HexNAc (ST))EILLDHGAPIQAK_]
collision cross section (charge state: 2, modification: HexNAc (ST)): 457.74 ± 0.56 Å²
collision cross section [18]: 559.32 ± 1.1 Å²
